From US20110117093A1 (published 2011)

Tests used:
TNF-alpha = target: T1, TNF-alpha (human, UniProt P01375 77-233); experiment: phage ELISA
T1 construct: also called TNFα; Tumour Necrosis Factor-alpha

[1] = target: T2, membrane-bound B Lymphocyte Stimulator on P388 plasma membranes (mouse, UniProt Q9WU72 1-309); experiment: phage competition ELISA
T2 construct: whole, on cells

[2] = target: T3, biotinylated B Lymphocyte Stimulator (human, soluble form) (human, UniProt Q9Y275 134-285, NHS-biotin labelled at a molar ratio of 20:1 biotin:B Lymphocyte Stimulator); experiment: purified scFv; inhibition of biotinylated BLyS binding to IM9 cells
T3 construct: also called bio-B Lymphocyte Stimulator

[3] = target: T4, B Lymphocyte Stimulator, human, soluble form (human, UniProt Q9Y275 134-285); experiment: phage ELISA
T4 construct: also called BLyS; immobilized B Lymphocyte Stimulator

[4] = target: T5, biotinylated B Lymphocyte Stimulator (soluble form) (human, UniProt Q9Y275 134-285, biotinylated with NHS-biotin (20:1 biotin:protein)); experiment: phage scFv, IM9 receptor binding inhibition
T5 construct: The biotinylation protocol covers human or mouse protein; also called bio-B Lymphocyte Stimulator; free B Lymphocyte Stimulator
Method: Plates were washed three times in PBST and three times in PBS, tapped dry and 50 μl of streptavidin-Delfia (Wallac) was added to each well at 1:1000 dilution in the Manufacturer's assay buffer. The plates were then incubated at room temperature for 1 hour and washed six times in Delfia wash solution (Wallac). After tapping the plates dry, 100 μl per well of Delfia enhancement solution (Wallac) was added. The plates were gently tapped to encourage micelle formation, incubated at room temperature for 10 minutes, and fluorescence read on a Wallac 1420 workstation at […].
All of the unique phage scFvs from panel 2 were assessed for their ability to inhibit B Lymphocyte Stimulator binding to its cognate receptor on IM9 cells. The biotinylation of B Lymphocyte Stimulator, maintenance of IM9 cells and receptor binding inhibition assay were performed as described in Example 3.

T2 sequence (Q9WU72 whole entry): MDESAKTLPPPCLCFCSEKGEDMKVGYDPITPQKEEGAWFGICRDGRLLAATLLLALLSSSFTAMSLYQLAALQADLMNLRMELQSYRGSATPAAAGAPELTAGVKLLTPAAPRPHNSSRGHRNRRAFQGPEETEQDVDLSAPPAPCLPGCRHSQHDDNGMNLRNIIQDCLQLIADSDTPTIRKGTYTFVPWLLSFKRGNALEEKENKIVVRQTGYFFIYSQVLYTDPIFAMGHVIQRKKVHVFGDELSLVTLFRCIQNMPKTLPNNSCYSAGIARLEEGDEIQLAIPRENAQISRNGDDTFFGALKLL
T1 sequence (P01375 77-233 limits assumed): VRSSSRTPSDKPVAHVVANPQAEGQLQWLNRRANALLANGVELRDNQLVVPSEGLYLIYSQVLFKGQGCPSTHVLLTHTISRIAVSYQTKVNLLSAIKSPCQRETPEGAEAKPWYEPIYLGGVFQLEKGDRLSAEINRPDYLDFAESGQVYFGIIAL

B1: I018D07 (scFv)
scFv: GVQLVQSGPEVKKPGASVIVSCTASGYTFTSYGVSWVRQAPGQGLEWIGWISAHNGQTKYAEKFQGRVTMTRNTSISTAYMELSSLRSEDTAVYYCARDGSYDILTGYYIDNYMDVWGKGTMVTVSSGGGGSGGGGSGGGGSSELTQDPAVSVALGQTVRITCQGDSLRSYYTNWFQQKPGQAPLLVVYAKNKRPSGIPDRFSGSSSGNTASLTITGAQAEDEADYYCHSRDSSGNHVLFGGGTKLTVLG
B1: no binding (TNF-alpha).

B2: I080B01 (scFv)
scFv: QVQLVQSGAEVKKPGASVKVSCKASGYTFTNYYMHWVRQAPGQGLEWMGIINPRDVSTTYAQKFQGRATMTRDTSTSTVYMELNSLRSEDTAVYYCAREYSGYHYVEGGSYAMDVWGQGTMVTVSSGGGGSGGGGSGGGGSALSYVLTQPPSASGTPGQRVTITCSGSSSNIGNYYVNWYQQVSGTAPKLIIYRNNQRPSGVPDRFSGSKSGASASLAISGLRSEDEADYFCAAWDDSLREFVFGTGTKVTVLG
B2: binds [1].

B3: I079F08 (scFv)
scFv: QMQLVQSGGGVVQPGRSLRLSCAASGFTFSSYGMHWVRQAPGKGLEWVAVISYDGSIKYYADSVKGRFTISRDNSKNTLYLQMNSLRAEDTAVYYCARYYYHSSGSDAFDIWGQGTLVTVPSGGGGSGGGGSGGGGSQSVLTQPPSASGTPGQRVTISCSGSSSNIGSNTVNWYQRLPGAAPQLLIYNNNQRPSGVPDRFSGSKSGTSASLAISGLQSEDEADYYCAAWDDSLNGWVFGGGTKLTVLG
B3: binds [1].

B4: I079B04 (scFv)
scFv: EVQLVESGGGLVQPGGSLRLSCAASGFTFSDYAMSWVRQAPGKGLEWVSAISGSGGSTSYADSVKGRFTISRDNSKNTLYLQMNSLRAEDTAVYYCASLLSDYWGRGTTVTVSSGGGGSGGGGSGGGGSQSVLTQPASVSGSPGQSITISCTGTSSDVGGYNYVSWYQQHPGKAPKLMIYEGSKRPSGVSYRFSGSKSGNTASLTISGLQAEDEADYYCSSYTTRSTRVFGGGTKLTVLG
B4: binds [1].

B5: I068C06 (scFv)
scFv: EVQLVQSGAEVKKPGSSVKVSCKASGGTVSSRTISWVRQAPGQGLEWMGGSLPPSGAPIYAQKFQGRVAITADALTNTAFMELRSLKSDDTAVYYCARDQGRYLDLWGKGTLVTVSSGGGGSGGGGSGGGGSAQAVLTQPSSVSGAPGQRVTISCTGSRSNIGAGYDVHWYQQLPGTAPKLLIYGNSNRPSGVPDRFSGSKSGTSASLAITGLQADDEADYYCQSYDTSLRGLFGTGTKVTVLG
notes: also called I0068C06; 0068C06
An IC50 [2] of 62 nM was found for B5 in this work.

B6: I026C04-K (scFv)
scFv: QVQLVQSGAEVKKPGSSVKVSCRASGGSFNKHAISWVRQAPGRGLEWMGGILPMYGTANYAQKFQGRVTITADKLTNTVYMDLSRLRYEDTAVYYCARELGLSIVGATTGALDMWGKGTLVTVSSGGGGSGGGGSGGGGSAQSVLTQPPSVSAAPGQKVTISCSGSSSNIGNNYVSWYQQIPGTAPKLLIYENNKRPSGIPDRFSGSKSGASATLDITGLQTGDEADYYCGTWHSSQVVFGGGTKLTVLG
B6: binds [3].

B7: I026C04-K (scFv)
scFv: QVQLVQSGAEVKKPGSSVKVSCRASGGSFNKHAISWVRQAPGRGLEWMGGILPMYGTANYAQKFQGRVTITADKLTNTVYMDLSRLRYEDTAVYYCARELGLSIVGATTGALDMWGKGTLVTVSSGGGGSGGGGSGGGGSAQSVLTQPPSVSAAPGQKVTISCSGSSSNIGNNYVSWYQQIPGTAPKLLIYENNKRPSGIPDRFSGSKSGASATLDITGLQTGDEADYYCGTWHSSQVVFGGGTKLTVLG
B7: binds [4].
